Assay [1] addresses T1, Hu CDH3 Dom2 mu (aa 216-327), human/mouse chimeric CDH3 on CHO cells (chimeric hu/mu).
T1 chain: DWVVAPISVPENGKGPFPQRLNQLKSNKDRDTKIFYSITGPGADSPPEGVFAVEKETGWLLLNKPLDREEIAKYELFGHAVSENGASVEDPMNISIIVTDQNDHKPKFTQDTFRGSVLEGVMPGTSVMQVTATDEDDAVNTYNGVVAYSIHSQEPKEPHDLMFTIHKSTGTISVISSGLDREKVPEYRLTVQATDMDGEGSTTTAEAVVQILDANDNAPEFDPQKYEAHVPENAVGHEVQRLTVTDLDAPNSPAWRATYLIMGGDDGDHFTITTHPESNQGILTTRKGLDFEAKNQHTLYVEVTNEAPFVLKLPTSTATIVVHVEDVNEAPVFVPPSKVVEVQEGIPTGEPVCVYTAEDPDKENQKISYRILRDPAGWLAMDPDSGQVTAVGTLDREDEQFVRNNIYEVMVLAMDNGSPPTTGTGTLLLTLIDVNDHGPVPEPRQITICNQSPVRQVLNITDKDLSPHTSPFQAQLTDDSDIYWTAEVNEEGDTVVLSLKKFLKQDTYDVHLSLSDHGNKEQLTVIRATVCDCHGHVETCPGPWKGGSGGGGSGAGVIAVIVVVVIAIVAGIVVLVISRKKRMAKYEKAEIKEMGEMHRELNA
In words: flow cytometry, transfected CHO cells; crude undiluted periplasmic scFv extract; anti-FLAG M2 + anti-mouse IgG Fcγ-PE; control PBS/2% FCS. The procedure:
(§1) Cells transfected with human or murine CDH3, or with the chimeric human/mouse CDH3 molecules (see Example 1) were stained with crude, undiluted periplasmic extract containing scFv binding to human/macaque CDH3. […] As negative control, cells were incubated with PBS/2% FCS instead of the periplasmic extract. The samples were measured by flow cytometry.
Background: A flow cytometer gives signals particle by particle.

Assay [2] has as its target T2, human CDH3 (P-cadherin) on cells (human, UniProt P22223 108-829).
T2 construct: The entry includes signal peptide and pro-peptide; extracellular domain D1 starts at aa 108; also called hu CDH3; hu CDH-3
The assay is described as above. As to the method:
as §1

The target in assay [3] is Hu CDH3 Dom3 mu (aa 328-440), human/mouse chimeric CDH3 on CHO cells (chimeric hu/mu). The description is as above. The procedure: as §1
For assay [4], the target named is T3, Hu CDH3 Dom1C mu (aa 180-215), human/mouse chimeric CDH3 on CHO cells (chimeric hu/mu, UniProt P22223 108-681 (human entry)).
T3 chain: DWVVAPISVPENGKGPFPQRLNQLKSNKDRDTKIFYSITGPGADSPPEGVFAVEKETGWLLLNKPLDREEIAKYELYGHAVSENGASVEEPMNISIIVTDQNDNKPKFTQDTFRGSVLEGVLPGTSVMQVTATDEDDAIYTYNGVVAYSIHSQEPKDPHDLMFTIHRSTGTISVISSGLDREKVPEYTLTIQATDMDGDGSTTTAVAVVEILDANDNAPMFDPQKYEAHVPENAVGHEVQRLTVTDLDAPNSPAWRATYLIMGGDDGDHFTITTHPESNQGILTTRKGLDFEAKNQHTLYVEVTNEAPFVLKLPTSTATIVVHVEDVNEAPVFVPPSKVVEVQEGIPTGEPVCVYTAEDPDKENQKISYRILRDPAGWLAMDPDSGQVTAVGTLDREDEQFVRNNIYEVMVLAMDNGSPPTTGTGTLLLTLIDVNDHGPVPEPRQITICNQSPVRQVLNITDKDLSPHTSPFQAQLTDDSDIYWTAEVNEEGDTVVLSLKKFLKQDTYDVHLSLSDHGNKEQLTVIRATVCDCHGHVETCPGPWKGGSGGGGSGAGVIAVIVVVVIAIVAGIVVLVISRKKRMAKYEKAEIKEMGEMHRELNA
Described as above. As to the method:
as §1

The next assay has as its target T4, murine CDH3 on cells (mouse, UniProt P10287 100-822).
T4 construct: negative control; also called mouse CDH3
T4 sequence: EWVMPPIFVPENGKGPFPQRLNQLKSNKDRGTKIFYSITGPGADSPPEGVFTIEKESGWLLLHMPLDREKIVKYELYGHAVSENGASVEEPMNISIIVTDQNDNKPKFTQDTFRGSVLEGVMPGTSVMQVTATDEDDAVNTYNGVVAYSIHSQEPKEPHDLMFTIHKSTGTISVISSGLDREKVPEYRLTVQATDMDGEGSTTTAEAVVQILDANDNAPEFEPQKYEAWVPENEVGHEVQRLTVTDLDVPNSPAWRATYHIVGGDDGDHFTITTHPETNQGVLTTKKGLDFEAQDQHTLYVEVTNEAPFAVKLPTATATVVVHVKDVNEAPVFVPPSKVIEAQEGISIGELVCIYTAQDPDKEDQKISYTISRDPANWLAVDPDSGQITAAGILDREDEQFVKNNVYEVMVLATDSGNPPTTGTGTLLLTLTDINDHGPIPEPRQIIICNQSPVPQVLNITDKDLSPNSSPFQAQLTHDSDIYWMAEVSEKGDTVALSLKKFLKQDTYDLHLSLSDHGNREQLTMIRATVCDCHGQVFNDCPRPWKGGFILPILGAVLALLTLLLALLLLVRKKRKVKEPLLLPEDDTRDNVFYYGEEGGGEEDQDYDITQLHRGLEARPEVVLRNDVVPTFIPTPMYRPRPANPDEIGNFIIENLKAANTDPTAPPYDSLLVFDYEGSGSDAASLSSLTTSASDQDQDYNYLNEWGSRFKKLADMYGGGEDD
In words: flow cytometry, transfected CHO cells; crude periplasmic scFv extract; anti-FLAG M2 + anti-mouse IgG Fcγ-PE. As to the method:
as §1

B1: CDH3-10 scFv (scFv)
scFv: EVQLVEESGGGLVKPGGSLKLSCAASGFTFSSYAMSWVRQTPDKRLEWVATISSGGHYTYYPDSVKGRFTISRDNAKNTLYLQMSSLKSEDTAMYYCASYYYGIPFGYWGQGTTVTVSSGGGGSGGGGSGGGGSELVMTQSPSSLSASLGEGVSLTCRASQDIGINLIWLRQEPDGTIKRLIYDTSSLDSGVPKRFSGSRSGSDYSLTISSLESEDFVHYYCLQYGSSPLTFGAGTKLEIK
For the molecule B1, the binding result in assay [1] is “binds”; in assay [2] it was “binds”; in assay [3] it was “binds”; in assay [4], “binds”; with murine CDH3 on cells, “no binding”.

B2: CDH3-9 (scFv)
scFv: EVQLVEESGGDLVKPGGSLKLSCAASGFTFSTYGMSWVRQTPDKRLEWVATISSGGHYSYYPDSVKGRFTISRDNAKNTLYLQMSSLKSEDTAMYYCASYYYGSPFAYWGQGTTVTVSSGGGGSGGGGSGGGGSELQMTQSPSSLSASLGERVSLTCRASQDIGSSLNWLQQKPDGTIKRLIYDTSSLDSGVPKRFSGSRSGSDYSLTISSLESEDFGDYYCVQYGSSPLTFGAGTKLEIK
notes: Used as crude periplasmic extract and detected through a FLAG tag; also called CDH3-9 scFv
Regarding B2, the binding result was “binds” in assay [1]; “binds” in assay [2]; “binds” in assay [3]; “binds” in assay [4]; “no binding” in the assay with murine CDH3 on cells.

B3: CDH3-8 (scFv)
scFv: EVQLVEQSGAEVVKPGASVKITCKASGYAFSSYWMNWVRQRPGKGLEWIGHIYPGDGDTNYNGKFKGKVTLTADKSSNTAYMQLSDLTPEDSAVYFCARDRGSFGAWFAYWGQGTTVTVSSGGGGSGGGGSGGGGSELVMTQTPSSLSASLGDRVTISCRASQDISNYLNWYQQKPDGTVKLLIYYTSRLHSGVPSRFSGSGSGTDYSLTISNLEQEDIATYFCQQGNRNPPTFGGGTKLEIK
notes: Used as crude periplasmic extract and detected through a FLAG tag; also called CDH3-8 scFv
In the case of B3, the binding result in assay [1] is reported as “binds”; in assay [2], “binds”; in assay [3], “binds”; in assay [4] it was “binds”; with murine CDH3 on cells it was “no binding”.

For the origin of these results see patent US20250092133A1 (Amgen, published 2025).
